The target in data set [1] is T1, HIV-1 Tat 25-mer peptide (tat25) (Human immunodeficiency virus 1, UniProt P69698 SEQ:1-25).
T1 chain: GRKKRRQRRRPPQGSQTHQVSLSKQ
As to the kind of experiment: EMSA; 1:1 KD; repeated in Table 4 under tat37 heading. Particulars: protein: synthetic, tags: peptide fragment, label: 32P, hairpin, stem-bulge-loop. (In general: Mobility shift assays separate free from complexed probe on a gel.)

Data set [2] has as its target T1, HIV-1 Tat 25-mer peptide (tat25). As to the kind of experiment: EMSA; 1:1 KD; repeated in Table 4. Particulars: protein: synthetic, tags: peptide fragment, label: 32P, hairpin, stem-bulge-loop.
For data set [3], the target named is T2, HIV-1 Tat 37-mer peptide (tat37) (Human immunodeficiency virus 1, UniProt P69698 SEQ:1-37).
T2 chain: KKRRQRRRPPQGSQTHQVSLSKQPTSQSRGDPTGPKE
The experiment in a line: EMSA; 1:1 KD; 2-3:1 KD 8200 nM; Table 4 gives 60 nM; 4 C. The following applies: protein: synthetic; tags: chemically synthesized peptide, RP HPLC purified (UCSF Biotechnology Resource Core); label: 32P; hairpin, stem-bulge-loop.

As usually defined, the Kd is the constant that tells how readily two partners part at equilibrium. A lower Kd goes with tighter binding.

In the case of GCCAGAUCUGAGCCUGGGAGCUCUCUGGC (ssRNA) [deltaTAR29 #3153 (16-45 -A17)], the Kd in data set [1] turned out to be 17.3 nM. On to GCCAGAUCUGAGCCUGGGAGCUCUCUGGC (ssRNA, 2'-OMe throughout) [2'-OMe deltaTAR #2306 29-mer (16-45 -A17)], for which the figures for the Kd in data set [2] and in data set [3] were 31.6 nM and 86.6 nM, respectively.

The values are drawn from patent US5736294A, “Reagents and methods for modulating gene expression through RNA mimicry” (ISIS Pharmaceuticals, Inc., priority 1991, dated 1998).
